# From publication PMC10708393, “The Fabrication of a Probe-Integrated Electrochemiluminescence Aptasensor Based on Double-Layered Nanochannel Array with Opposite Charges for the Sensitive Determination of C-Reactive Protein”
# T1: C-reactive protein (CRP) (UniProt P02741 19-224)
# T1 sequence: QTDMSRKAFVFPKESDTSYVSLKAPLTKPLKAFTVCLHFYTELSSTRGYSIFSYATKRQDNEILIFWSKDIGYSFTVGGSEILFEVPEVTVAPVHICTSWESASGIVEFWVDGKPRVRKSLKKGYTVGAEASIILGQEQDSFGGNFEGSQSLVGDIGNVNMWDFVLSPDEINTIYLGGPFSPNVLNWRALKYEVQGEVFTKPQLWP
# What was measured:
# [1] = molecular target: carbohydrate antigen 15-3 (CA15-3) (UniProt P15941 24-1097); assay: electrochemiluminescence aptasensor; selectivity test; no significant ECL decrease; CRP incubation 4 °C, 1 h on BSA-blocked aptamer electrode; wash 0.01 M PBS pH 7.4; ECL read in 3 mM TPA, 0.01 M PBS pH 7.4, room temperature; settings: protein: commercial
# Chain of carbohydrate antigen 15-3 (CA15-3) (P15941 24-1097): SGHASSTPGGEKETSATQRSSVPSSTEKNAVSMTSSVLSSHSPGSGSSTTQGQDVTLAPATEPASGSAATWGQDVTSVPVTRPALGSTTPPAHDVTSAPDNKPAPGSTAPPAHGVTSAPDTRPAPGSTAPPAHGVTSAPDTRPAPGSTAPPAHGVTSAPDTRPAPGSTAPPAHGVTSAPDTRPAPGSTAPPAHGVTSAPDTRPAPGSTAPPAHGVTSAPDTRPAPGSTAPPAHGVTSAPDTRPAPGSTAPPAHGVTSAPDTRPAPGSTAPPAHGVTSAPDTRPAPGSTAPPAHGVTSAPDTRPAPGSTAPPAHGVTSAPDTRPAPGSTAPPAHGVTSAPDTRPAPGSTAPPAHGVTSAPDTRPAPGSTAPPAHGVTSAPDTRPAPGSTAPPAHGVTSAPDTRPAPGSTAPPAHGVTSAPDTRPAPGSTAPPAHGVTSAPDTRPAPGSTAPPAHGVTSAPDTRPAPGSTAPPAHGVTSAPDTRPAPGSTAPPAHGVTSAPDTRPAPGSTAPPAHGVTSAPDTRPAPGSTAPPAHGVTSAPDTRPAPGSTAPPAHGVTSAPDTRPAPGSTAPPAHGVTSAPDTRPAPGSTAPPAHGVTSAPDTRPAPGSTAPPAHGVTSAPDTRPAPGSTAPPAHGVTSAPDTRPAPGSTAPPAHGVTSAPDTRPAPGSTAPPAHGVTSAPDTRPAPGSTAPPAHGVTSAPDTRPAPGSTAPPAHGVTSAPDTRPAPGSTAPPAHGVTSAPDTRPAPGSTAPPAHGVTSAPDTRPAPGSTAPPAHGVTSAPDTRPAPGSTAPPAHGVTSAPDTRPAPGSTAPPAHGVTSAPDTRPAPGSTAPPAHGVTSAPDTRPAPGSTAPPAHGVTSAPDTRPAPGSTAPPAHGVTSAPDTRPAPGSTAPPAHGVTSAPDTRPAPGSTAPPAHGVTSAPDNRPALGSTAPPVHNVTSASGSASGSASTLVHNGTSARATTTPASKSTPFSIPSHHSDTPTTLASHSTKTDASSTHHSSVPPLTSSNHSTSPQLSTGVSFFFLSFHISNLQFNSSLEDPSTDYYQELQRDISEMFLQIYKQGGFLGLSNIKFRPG
# [2] = molecular target: carcinoembryonic antigen (CEA) (UniProt P06731 35-685); assay: as above; settings: protein: commercial
# Chain of carcinoembryonic antigen (CEA) (P06731 35-685): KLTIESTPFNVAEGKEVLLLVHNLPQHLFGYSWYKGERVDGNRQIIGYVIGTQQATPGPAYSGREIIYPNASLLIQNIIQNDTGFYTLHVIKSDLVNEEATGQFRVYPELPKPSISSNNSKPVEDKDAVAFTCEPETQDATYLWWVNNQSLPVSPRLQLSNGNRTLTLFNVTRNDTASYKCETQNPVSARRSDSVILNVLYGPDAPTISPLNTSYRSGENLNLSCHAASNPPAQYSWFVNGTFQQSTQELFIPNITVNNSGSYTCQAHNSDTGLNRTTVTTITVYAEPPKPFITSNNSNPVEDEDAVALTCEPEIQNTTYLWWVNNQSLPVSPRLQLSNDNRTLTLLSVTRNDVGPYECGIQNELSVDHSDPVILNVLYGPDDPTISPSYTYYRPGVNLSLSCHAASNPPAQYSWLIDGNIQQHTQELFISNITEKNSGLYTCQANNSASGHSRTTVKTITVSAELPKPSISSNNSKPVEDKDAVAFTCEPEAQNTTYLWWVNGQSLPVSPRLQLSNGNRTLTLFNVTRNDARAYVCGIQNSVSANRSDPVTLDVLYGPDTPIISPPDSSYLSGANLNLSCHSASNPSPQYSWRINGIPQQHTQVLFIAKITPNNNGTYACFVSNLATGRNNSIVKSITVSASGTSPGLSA
# C-reactive protein (CRP) = molecular target: T1, C-reactive protein (CRP); assay: electrochemiluminescence aptasensor; linear response 0.01-1000 ng/mL, LOD 8.5 pg/mL; immobilized aptamer; CRP incubation 4 °C, 1 h on BSA-blocked aptamer electrode; wash 0.01 M PBS pH 7.4; ECL read in 3 mM TPA, 0.01 M PBS pH 7.4, room temperature; settings: protein: commercial; chain copies: 5
binder,measurement,setting,value
"CGAAGGGGATTCGAGGGGTGATTGCGTGCTCCATTTGGTG (ssDNA, 5'-NH2) [CRP aptamer]",binding result,[1],no binding
same,binding result,[2],no binding
same,binding result,C-reactive protein (CRP),binds
